Data: publication doi:10.1101/2022.04.09.487726 (bioRxiv, 2022)

Target: the molecule itself
Assay: cryo-EM structure

B1: Redβ177-His6 (C-terminally truncated Redβ annealase of bacteriophage λ, residues 1-177) (domain or fragment, bacteriophage lambda (phage λ), UniProt P03698 1-177, looked up)
chain: MSTALATLAGKLAERVGMDSVDPQELITTLRQTAFKGDASDAQFIALLIVANQYGLNPWTKEIYAFPDKQNGIVPVVGVDGWSRIINENQQFDGMDFEQDNESCTCRIYRKDRNHPICVTEWMDECRREPFKTREGREITGPWQSHPKRMLRHKAMIQCARLAFGFAGIYDKDEAER
- binding result: binds
